Results on one protein are retold here after publication doi:10.1101/2023.03.12.532276 (bioRxiv, 2023).

The series deals with the molecule itself. Briefly: SAXS with online size exclusion. On the technique in general: In gel filtration, larger molecules generally elute earlier.

B1: ELF3 PrLD Q7 (prion-like domain of EARLY FLOWERING 3, residues 388-625, 7 glutamines, ecotype Columbia) (domain or fragment)
chain: LLPSEFLVKPPLPHVVVKQRGDSEKTDQHKMESSAENVVGRLSNQGHHQQSNYMPFANNPPASPAPNGYCFPPQPPPSGNHQQWLIPVMSPSEGLIYKPHPGMAHTGHYGGYYGHYMPTPMVMPQYHPGMGFPPPGNGYFPPYGMMPTIMNPYCSSQQQQQQQPNEQMNQFGHPGNLQNTQQQQQRSDNEPAPQQQQQPTKSYPRARKSRQGSTGSSPSGPQGISGSKSFRPFAAVDE
Consider B1, for which the binding result is given as “binds”.
